Publication doi:10.64898/2025.12.19.695307 (bioRxiv, 2025)

What was measured:
SARS-CoV-2 BA.2.86 RBD = SARS-CoV-2 BA.2.86 RBD (SARS-CoV-2 Omicron BA.2.86, strain, N354 glycosylation); assay: BLI
[1] = molecular target: SARS-CoV-2 Delta (B.1.617.2) RBD (SARS-CoV-2 Delta (B.1.617.2), L452R); assay: BLI
[2] = molecular target: SARS-CoV-2 Omicron BQ.1.1 RBD (SARS-CoV-2 Omicron BQ.1.1, R346T | L452R); assay: BLI
SARS-CoV-2 JD.1.1 RBD = SARS-CoV-2 JD.1.1 RBD (SARS-CoV-2 Omicron JD.1.1, strain); assay: BLI
SARS-CoV-2 JN.1 RBD = SARS-CoV-2 JN.1 RBD (SARS-CoV-2 Omicron JN.1, strain, N354 glycosylation); assay: BLI
[3] = molecular target: SARS-CoV-2 Omicron XBB.1.5 RBD (SARS-CoV-2 Omicron XBB.1.5, F490S); assay: BLI
SARS-CoV-2 KP.3 RBD [4] = molecular target: T1, SARS-CoV-2 KP.3 RBD (SARS-CoV-2 Omicron KP.3, strain, N354 glycosylation); assay: BLI
[5] = molecular target: SARS-CoV-2 Omicron EG.5.1 RBD (SARS-CoV-2 Omicron EG.5.1, F490S); assay: BLI
SARS-CoV-2 HK.3 RBD = SARS-CoV-2 HK.3 RBD (SARS-CoV-2 Omicron HK.3, strain); assay: BLI
[6] = molecular target: SARS-CoV-2 Kappa (B.1.617.1) RBD (SARS-CoV-2 Kappa (B.1.617.1), L452R); assay: BLI
[7] = molecular target: SARS-CoV-2 Omicron BA.4/5 RBD (SARS-CoV-2 Omicron BA.4/5, L452R); assay: BLI
SARS-CoV-2 KP.3 RBD [8] = molecular target: T1, SARS-CoV-2 KP.3 RBD; assay: cell-based or functional assay
[9] = molecular target: SARS-CoV-2 Omicron BF.7 RBD (SARS-CoV-2 Omicron BF.7, L452R); assay: BLI
[10] = molecular target: SARS-CoV-2 Omicron BA.2.12.1 RBD (SARS-CoV-2 Omicron BA.2.12.1, L452Q); assay: BLI
[11] = molecular target: SARS-CoV-2 Omicron BA.2.13 RBD (SARS-CoV-2 Omicron BA.2.13, L452M); assay: BLI
SARS-CoV-2 WT S-trimer = SARS-CoV-2 WT S-trimer (SARS-CoV-2 ancestral (WT), UniProt P0DTC2, deletion of amino acids PRRA (681-684)); assay: BLI
[12] = molecular target: SARS-CoV-2 Alpha (B.1.1.7) RBD (SARS-CoV-2 Alpha (B.1.1.7), strain); assay: BLI
[13] = molecular target: SARS-CoV-2 Beta (B.1.351) RBD (SARS-CoV-2 Beta (B.1.351), strain); assay: BLI
[14] = molecular target: SARS-CoV-2 Gamma (P.1) RBD (SARS-CoV-2 Gamma (P.1), strain); assay: BLI
[15] = molecular target: SARS-CoV-2 Omicron BA.1.1 RBD (SARS-CoV-2 Omicron BA.1.1, strain); assay: BLI
[16] = molecular target: SARS-CoV-2 Omicron BA.2 RBD (SARS-CoV-2 Omicron BA.2, strain); assay: BLI
[17] = molecular target: SARS-CoV-2 Omicron EG.5 RBD (SARS-CoV-2 Omicron EG.5, R346T | F490S); assay: BLI
[18] = molecular target: SARS-CoV-2 Omicron BA.1 RBD (SARS-CoV-2 Omicron BA.1, strain); assay: BLI
[19] = molecular target: SARS-CoV-2 Omicron XBB RBD (SARS-CoV-2 Omicron XBB, F490S); assay: BLI
[20] = molecular target: SARS-CoV-2 Omicron BA.3 RBD (SARS-CoV-2 Omicron BA.3, strain); assay: BLI
[21] = molecular target: SARS-CoV-2 Omicron BA.2.75 RBD (SARS-CoV-2 Omicron BA.2.75, strain); assay: BLI

Row | Binder | Kd [1] [nM] | Kd [2] [nM] | Kd [3] [nM] | Kd [5] [nM] | Kd [6] [nM] | Kd [7] [nM] | Kd [10] [nM] | Kd [9] [nM] | Kd [11] [nM] | binding result (SARS-CoV-2 WT S-trimer) | Kd [12] [nM] | Kd [13] [nM] | Kd [14] [nM] | Kd [15] [nM] | Kd [16] [nM] | Kd [17] [nM] | Kd [18] [nM] | Kd [19] [nM] | Kd [20] [nM] | Kd [21] [nM] | also measured
1 | ZL525 (antibody, V domains shown) V domain 1: QVQLVQSGAEVKKPGSSMKVSCQASGGTFSSHPISWIRQAPGQGLEWMGRIIPIAGMTDYGQKFQGRITITADTSTSTSYVELRGLRSQDTAFYYCAKDVGYSDYGSAYYFHTWGQGTLITVSS V domain 2: QSVLTQPPSVSGAPGQRVTISCTGSNSNIGAGYDVHWYQQLPGTAPKLLIYRNNKRPSGVPDRFSGSKSDTSASLAITGLQAEDEAHYYCQSFDSSLGGSLFGGGTKLAVL | < 0.71 | < 0.71 | < 0.71 | < 0.71 | < 0.71 | < 0.71 | – | – | – | – | – | – | – | – | – | – | – | – | – | – | Kd (SARS-CoV-2 BA.2.86 RBD): < 1.11 nM; Kd (SARS-CoV-2 JD.1.1 RBD): < 1.11 nM; Kd (SARS-CoV-2 JN.1 RBD): < 1.11 nM; Kd (SARS-CoV-2 KP.3 RBD [4]): < 1.11 nM; Kd (SARS-CoV-2 HK.3 RBD): < 1.11 nM; IC50 of neutralisation of authentic KP.3 virus (focus reduction, Vero E6) (SARS-CoV-2 KP.3 RBD [8]): 0.107 µg/mL
2 | R1-32-AAM (R1-32-artificial-affinity-matured) (antibody, V domains shown) VH: EVQLVESGAEVKKPGSSVKVSCKASGGTFSSYFISWVRQAPGQGLEWMGGIIPILGIADYAEKFQGRVTITADKSTSTAYMELSSLRSEDTAVYYCARENGYSGYGAAYNFDLWGRGTLVTVSS VL: QSVLTQPPSVSGAPGQRVTISCTGSDSNIGAGYDVHWYQQLPGTAPKLLIYGNSNRPSGVPDRFSGSKSDTSASLAITGLQAEDEADYYCQSYDSSLSDSVFGGGTKLTVL | – | – | – | – | – | – | – | – | – | – | – | – | – | – | – | – | – | – | – | – | fold enhancement of affinity relative to R1-32 [1]: ~100 fold; fold enhancement of affinity relative to R1-32 [2]: ~100 fold; fold enhancement of affinity relative to R1-32 [9]: ~100 fold; fold enhancement of affinity relative to R1-32 [6]: ~100 fold; fold enhancement of affinity relative to R1-32 [7]: ~100 fold
3 | R1-32 (antibody, V domains shown) VH: EVQLVESGAEVKKPGSSVKVSCKASGGTFSSYAISWVRQAPGQGLEWMGGIIPILGIANYAQKFQGRVTITADKSTSTAYMELSSLRSEDTAVYYCARENGYSGYGAAANFDLWGRGTLVTVSS VL: QSVLTQPPSVSGAPGQRVTISCTGSSSNIGAGYDVHWYQQLPGTAPKLLIYGNSNRPSGVPDRFSGSKSGTSASLAITGLQAEDEADYYCQSYDSSLSGSVFGGGTKLTVL | > 55 | > 55 | – | – | > 55 | > 55 | > 55 | > 55 | > 55 | – | – | – | – | – | – | – | – | – | – | – | –
4 | C807 (antibody, V domains shown) VH: QVQLVQSGAEAKKPGSSVKVSCKASGGTFKSYIINWVRQAPGQGLEWMGEIIPIFGTANYAQKFQGRVTSTADESTSTAYMELSSLKSEDTAVYYCARGRGYSGYGASYYFDYWGQGTLVTVSS VL: QSVLTQPPSVSGAPGQRVTISCTGSNSNIGAGYDVHWYQQLPGTAPKLLIYANSNRPSGVPDRFSGSKSGTSASLAITGLQAEDEADYYCQSYDSGLSGSVFGGGTKLTVL | < 2.1 | < 2.1 | < 4.5 | < 4.5 | < 2.1 | < 2.1 | < 2.1 | < 2.1 | < 2.1 | binds | < 0.3 | < 0.3 | < 0.3 | < 0.3 | < 0.3 | < 4.5 | < 0.3 | < 4.5 | < 0.3 | < 0.3 | –
5 | BD56-104 (antibody, V domains shown) VH: QVQLVQSGAEVKTPGSSVKVSCKASGGTFGSHSITWVRQAPGQGLEWMGRVIPILGIPDFAESFQGRVAITADRSTSTAHMELSRLRSEDTAVYYCARDVGYSGSGSSNYFDSWGQGTLVTVSS VL: QSVLTQPPSVSGAPGQRVTISCTGSNSNIGAGYDVHWYRQLPGTAPKLLIYVNNNRPSGVPDRFSGSRSGASASLAITGLQAEDEAEYYCQSYDSSLSGSIFGGGTKLTVL | < 2.1 | < 2.1 | < 4.5 | < 4.5 | < 2.1 | < 2.1 | < 2.1 | < 2.1 | < 2.1 | binds | < 0.3 | < 0.3 | < 0.3 | < 0.3 | < 0.3 | < 4.5 | < 0.3 | < 4.5 | < 0.3 | < 0.3 | –
6 | BD56-104+D59NH+E62QH (antibody, V domains shown) VH: QVQLVQSGAEVKTPGSSVKVSCKASGGTFGSHSITWVRQAPGQGLEWMGRVIPILGIPNFAQSFQGRVAITADRSTSTAHMELSRLRSEDTAVYYCARDVGYSGSGSSNYFDSWGQGTLVTVSS VL: QSVLTQPPSVSGAPGQRVTISCTGSNSNIGAGYDVHWYRQLPGTAPKLLIYVNNNRPSGVPDRFSGSRSGASASLAITGLQAEDEAEYYCQSYDSSLSGSIFGGGTKLTVL | – | – | – | – | – | – | – | – | – | – | – | – | – | – | – | – | – | – | – | – | fold reduction in binding relative to BD56-104 [7]: ~100 fold
7 | C092 (antibody, V domains shown) VH: QVQLVQSGAEVKKPGSSVKVSCKASGGSFTNHFISWVRQAPGQGLEWMGRIIPILGTANYAQNFQGRVMMTADKSTSTAYMELSSLRSEDTAVYYCARDSGYSGYGSTYYMDVWGKGTTVTVSS VL: QSVLTQPPSVSGAPGQRVTISCTGSNSNIGAGYDVHWYQQLPGAAPKLLIYGNNNRPSGVPDRFSGSKSDTSASLAITGLQVEDEADYYCQSYDSSLSDSVFGSGTKVTVL | < 2.1 | < 2.1 | < 4.5 | < 4.5 | < 2.1 | < 2.1 | < 2.1 | < 2.1 | < 2.1 | binds | < 0.3 | < 0.3 | < 0.3 | < 0.3 | < 0.3 | < 4.5 | < 0.3 | < 4.5 | < 0.3 | < 0.3 | –
8 | C092-germline HCDR1 (antibody, V domains shown) VH: QVQLVQSGAEVKKPGSSVKVSCKASGGTFSSYAISWVRQAPGQGLEWMGRIIPILGTANYAQNFQGRVMMTADKSTSTAYMELSSLRSEDTAVYYCARDSGYSGYGSTYYMDVWGKGTTVTVSS VL: QSVLTQPPSVSGAPGQRVTISCTGSNSNIGAGYDVHWYQQLPGAAPKLLIYGNNNRPSGVPDRFSGSKSDTSASLAITGLQVEDEADYYCQSYDSSLSDSVFGSGTKVTVL | – | – | – | – | – | – | – | – | – | – | – | – | – | – | – | – | – | – | – | – | fold reduction in binding relative to C092 [1]: ~10 fold; fold reduction in binding relative to C092 [6]: ~10 fold; fold reduction in binding relative to C092 [7]: ~10 fold
9 | BD56-597 (antibody, V domains shown) VH: QVQLVQSGAEVKKPGSSVKVSCKASGGTFSTYPISWVRQAPGQGVEWMGAIIPILGTTDYAQIFQGRVTITADKSTSTAYMELSSLRPEDTAVYYCARERGYSGYGAAYYFDSWGQGTLVTVSS VL: QSVLTQPPSVSGAPGQRVTISCTGSDSNIGAGYDVHWYQQLPGTAPKLLIYVNINRPSGVPDRFSGSKSATSASLAITGLQAEDEADYYCQSYDSSLSGVVFGGGTKLTVL | < 2.1 | < 2.1 | < 4.5 | < 4.5 | < 2.1 | < 2.1 | < 2.1 | < 2.1 | < 2.1 | binds | < 0.3 | < 0.3 | < 0.3 | < 0.3 | < 0.3 | < 4.5 | < 0.3 | < 4.5 | < 0.3 | < 0.3 | –
